Source: patent US20250355001A1 (GTINVENT, published 2025)
Where no end group is shown, it is not given here. The star is where a group is joined. Biotin = O=C1N[C@H]2[C@H](CS[C@H]2CCCCC(=O)*)N1

Legend:
[1] = target: T1, full length human tau protein 2N4R (hT40) (human, UniProt P10636 1-758); experiment: direct ELISA
T1 construct: recombinant; also called T441
Procedure: (§1) A series of binding ELISA was performed using various truncated versions of the tau protein and 13mer peptide libraries spanning the entire hT40 molecule for mapping the epitopes of anti-tau scAbs (Full list of protein antigens used is given in Table 14). In general, ELISA plates were coated with 1 μg/ml hT40 or dGA or dGAE or other truncated versions of the protein and in the case of biotinylated peptides, plates were coated with 5 μg/ml Streptavidin followed by 1 μg/ml biotinylated peptide. The plates were blocked with 2% MPBS and scAb samples added at desired starting concentrations and double diluted across the plate. Binding was detected using anti-Human C Kappa HRP conjugated secondary antibody and the resulting immunoreaction was developed and absorbance values measured as described above.

dGAE (tau 297-391) [2] = target: T2, dGAE (tau 297-391) (human, UniProt P10636 614-708); experiment: direct ELISA
T2 construct: monomer; also called dGAE95
Procedure: as §1

dGA (tau 297-390) [3] = target: T3, dGA (tau 297-390) (human, UniProt P10636 614-707); experiment: direct ELISA
Procedure: as §1

[4] = target: T1, full length human tau protein 2N4R …; experiment: Biacore
How it was run: (§2)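 scAb captured on flow cell 2 of an antibody-coated chip, flow cell 1 as reference; tau analyte injected 120 s association, 420 s dissociation, glycine pH 2.0 regeneration, in multi-cycle or single-cycle kinetics format. Responses fitted to a 1:1 binding model for kinetics and affinity.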

[5] = target: T1, full length human tau protein 2N4R …; experiment: SPR, summary table
How it was run: as §2

[6] = target: T1, full length human tau protein 2N4R …; experiment: SPR, scAb captured, tau analyte
How it was run: as §2

[7] = target: T1, full length human tau protein 2N4R …; experiment: sandwich ELISA, S1D12 mAb capture, scAb detection
How it was run: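 Read-out was HRP anti-HuCk with absorbance at 450 nm (positive above 0.3 after background subtraction) or chemiluminescence, including directly HRP-conjugated scAbs.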

[8] = target: T4, tau parent peptide 355-367 (GSLDNITHVPGGG); experiment: ELISA on biotinylated peptide over streptavidin
T4 peptide: Biotin-GSLDNITHVPGGG
Procedure: Briefly, 5 μg/ml streptavidin (Thermo Fisher) was adsorbed to Nunc 96-well MaxiSorp plates and following incubation at 37° C. for 1 h, the plates were washed as normal and blocked with 2% MPBS. N-terminally biotinylated peptides (Prolmmune Ltd) were added to the plates and incubated for 1 h at 37° C. Subsequently, test scAbs at starting concentrations of 100-500 nM was added and double diluted across the plate for each peptide and incubated for 1 h at 37° C. Rest of the ELISA was conducted as described above and the plates were read at absorbance 450 nm. Immunoreactivity of the scAb of interest was quantified as the % of scAb was bound for each peptide at a chosen concentration (FIG. 15-20).

dGAE (tau 297-391) [9] = target: T2, dGAE (tau 297-391); experiment: sandwich ELISA, 423 mAb capture, dGAE titrated, scAb at 10 µg/ml
aggregated dGAE [10] = target: T5, aggregated dGAE (human, UniProt P10636 614-708, limits assumed); experiment: ELISA, direct immobilisation, SDS + Triton treated dGAE aggregates
T5 construct: dGAE aggregated in vitro with DTT, 700 rpm, 37 C, 24 h; also called dGAE aggregates; dGAE agg

aggregated dGAE [11] = target: T5, aggregated dGAE; experiment: sandwich ELISA, S1D12 mAb capture, SDS + Triton treated dGAE aggregates
Procedure: (§3) For aggregation, 1000 μL 100 μM dGAE+10 μL 10 mM DTT was added to a ‘LoBind’ microfuge tubes and agitated at 700 RPM/37° C. for 24 hours. Resulting sample centrifuged at 17,000×g/4° C. for 60 min and supernatant discarded to remove left over monomer. Pellet resuspended in half the original volume for future experiments and hereafter referred to as ‘aggregates’. 1 μl of aggregates was added to 1 ml of PBS and SDS was added to a final concentration of 1% (w/v). This was left to incubate on lab bench for 1 h with gentle agitation every 15 minutes. In order to neutralize the SDS effect on ELISA, Triton X-100 added to a final concentration of 3% (v/v) and mixed gently by pipetting to prevent any bubble formation. […] Similarly aggregates treated with only SDS or Triton X-100, untreated aggregates, dGAE monomers treated with only SDS or SDS+Titon X-100 were also added to designated wells as controls. All samples were then double diluted across the plate in final volumes of 100 μl. The final column was left with no protein to act as a blank.

dGAE (tau 297-391) [12] = target: T2, dGAE (tau 297-391); experiment: sandwich ELISA, 423 mAb capture, dGAE titrated, scAb at 10 µg/ml [D00039 Figure 34 cont. F]
tau fragment 186-350 = target: T6, tau fragment 186-350 (human, UniProt P10636 503-667); experiment: direct ELISA
T6 construct: also called m186-350

tau fragment 337-368 = tau fragment 337-368 (human); experiment: direct ELISA
tau fragment 369-390 = target: T7, tau fragment 369-390 (human); experiment: direct ELISA
T7 peptide: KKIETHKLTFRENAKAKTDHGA

tau fragment 369-391 = target: T8, tau fragment 369-391 (human); experiment: direct ELISA
T8 peptide: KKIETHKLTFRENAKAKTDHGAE

dGA (tau 297-390) [13] = target: T3, dGA (tau 297-390); experiment: SPR, scAb captured, tau analyte
How it was run: as §2
Target sequence in this assay (P10636 614-707 limits assumed): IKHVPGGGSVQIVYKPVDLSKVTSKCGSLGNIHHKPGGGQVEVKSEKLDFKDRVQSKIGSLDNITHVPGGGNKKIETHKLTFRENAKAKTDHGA

[14] = target: T9, tau parent peptide 367-379 (GNKKIETHKLTFR) (human); experiment: ELISA on biotinylated peptide over streptavidin
T9 peptide: Biotin-GNKKIETHKLTFR

aggregated dGAE [15] = target: T5, aggregated dGAE; experiment: sandwich ELISA, Triton-treated aggregates titrated, S1D12 mAb capture
Procedure: as §3

[16] = target: T1, full length human tau protein 2N4R …; experiment: hT40 ELISA
[17] = target: tau fragment 266-359 (R1-3) (human, UniProt P10636 583-676); experiment: direct ELISA
dGAE (tau 297-391) [18] = target: T2, dGAE (tau 297-391); experiment: sandwich ELISA, 423 mAb capture, dGAE titrated, scAb at 10 µg/ml [D00041 Figure 34 cont. O]
dGAE (tau 297-391) [19] = target: T2, dGAE (tau 297-391); experiment: sandwich ELISA, 423 mAb capture, dGAE titrated, scAb at 10 µg/ml; remark: listed apart in the source
[20] = target: T10, human tau (hT40) with P301S and G335D of Line 66 mice (human, UniProt P10636 1-758); experiment: Western blot
T10 construct: transgene product in brain homogenate or plasma; also called L66 human tau

[21] = target: T1, full length human tau protein 2N4R …; experiment: SPR, hT40 immobilised, mAb analyte
aggregated dGAE [22] = target: T5, aggregated dGAE; experiment: capture ELISA, mAb coated at 1 µg/ml, aggregates titrated, S1D12 scAb detection

T1 sequence (P10636 other isoform, or with tags, fused parts or gaps limits assumed): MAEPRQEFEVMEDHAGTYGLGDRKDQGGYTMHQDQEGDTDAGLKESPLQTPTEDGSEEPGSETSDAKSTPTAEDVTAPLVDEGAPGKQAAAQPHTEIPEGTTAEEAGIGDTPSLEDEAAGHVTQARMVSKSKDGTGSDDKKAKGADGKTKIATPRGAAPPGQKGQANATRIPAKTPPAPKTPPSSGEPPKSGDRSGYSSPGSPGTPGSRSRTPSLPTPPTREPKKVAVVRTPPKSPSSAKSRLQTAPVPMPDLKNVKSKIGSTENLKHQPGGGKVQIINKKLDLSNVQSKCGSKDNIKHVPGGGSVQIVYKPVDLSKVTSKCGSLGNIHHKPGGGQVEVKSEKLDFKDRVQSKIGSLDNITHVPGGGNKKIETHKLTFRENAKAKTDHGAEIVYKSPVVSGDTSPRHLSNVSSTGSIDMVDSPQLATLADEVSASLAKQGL
tau fragment 266-359 (R1-3), sequence (P10636 583-676): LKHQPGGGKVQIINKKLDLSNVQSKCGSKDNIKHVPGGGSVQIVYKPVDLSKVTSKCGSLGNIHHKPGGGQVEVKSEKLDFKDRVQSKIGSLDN
tau fragment 337-368 (human), sequence (peptide, as listed by the source): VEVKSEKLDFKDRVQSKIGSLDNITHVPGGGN
T10 sequence (P10636 other isoform, or with tags, fused parts or gaps P301S G335D P301S G335D limits assumed): as the sequence (P10636 other isoform, or with tags, fused parts or gaps limits assumed) above, with P301S, G335D counted along it
T6 sequence (P10636 503-667): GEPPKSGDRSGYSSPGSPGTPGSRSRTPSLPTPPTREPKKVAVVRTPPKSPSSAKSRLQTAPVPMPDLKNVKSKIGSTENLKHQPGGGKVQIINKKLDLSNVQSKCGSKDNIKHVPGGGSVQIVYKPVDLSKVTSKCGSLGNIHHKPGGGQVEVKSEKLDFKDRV

B1: E2B7 scAb (scFv, not shown: small tags and cut ends)
scFv: QVQLQESGPSLVKPSQTLSLTCTVSGFSLTSWGVAWVRQAPGKALEWLGTMRSGGGTEYNPALKSRLSITRDTSKSQVSLSLSSVTTEDMAMYYCARGYLSGIHYAWGRGLLVSVSSEGKSSGASGESKVDDQAVLTQLSSVSGSLGQRVSITCSGSSSNVGDGDYVGWFQQLPGSAPKLLIYSARNRASGVPDRFSGSRSGNTATLTITSLQAEDEADYYCASIDTSRSHIFGSGTRLTVLG
notes: scAb
[1]
  binding result: no binding (tested: 25 ug/ml)
dGAE (tau 297-391) [2]
  EC50 (read off the curve): ~0.1 µg/mL
dGA (tau 297-390) [3]
  binding result: no binding (tested: 25 ug/ml)

B2: CA4 scAb (scFv, not shown: small tags and cut ends)
scFv: QVQLQESGPSLVKPSQTLSLTCTVSGFSLTSYSVYWVRQAPGQALEWISIMYASGRVDYNPALKSRLSITRDTSKSQFSLSLSSVTTEDTAVYYCTRGIENWGPGLLVTVSSEGKSSGASGESKVDDDIQVTQSPSSLSASLTERVSITCRTSQSVNNYLSWYQQKPGQAPKLLIYYATRLYTDVPSRFSGSGSGTDYTLTITSLEADDTATYYCLQYDSTPLAFGGGTNVEIK
notes: scAb
[4]
  Kd: 3.6 nM
[5]
  Kd: 3.61 nM
[6]
  Kd: 3.61 nM
  koff: 0.00165 s⁻¹
  kon: 458000 M⁻¹ s⁻¹
[7]
  LoD chemiluminescence detection: 0.37 ng/mL
  LoD colourimetric detection: 6 ng/mL
[8]
  binding result: binds
dGAE (tau 297-391) [9]
  EC50 (read off the curve): ~0.3 µg/mL

B3: CA9 scAb (scFv, not shown: small tags and cut ends)
scFv: QVQLQESGPSLVKPSQTLSLTCTVSGFSLTSNSVGWVRQAPGKAPEWVAGIDTDGEEGYNPALNSRLSITRDTSKSQVSLSLSSVTSEDTAVYYCGRSYRSDGLAYGYVQAIDYWGPGLLVTVSSEGKSSGASGESKVDDQAVLTQPASVSGSLGQRVSITCSGSFIGISSVGWFQQLPGSGLRTIIVASDGRPSGVPDRFSMSKSGNTATLTISSLQAEDEADYFCGSSDRTQYTGVFGSGTRLTVLG
notes: scAb
Aggregated dGAE [10]
  LoD: 40 ng/mL
Aggregated dGAE [11]
  LoD: 4 ng/mL
dGAE (tau 297-391) [12]
  EC50 (read off the curve): ~0.2 µg/mL

B4: S1G2 scAb (scFv, not shown: small tags and cut ends)
scFv: QVQLQESGPSLVKPSQTLSLTCTVSGFSLTSNSVGWVRQAPGKAPEWVAGIDTDGEEGYNPALNSRLSITRDTSKSQVSLSLSSVTSEDTAVYYCGRSYRADGLAYGYVQAIDYWGPGLLVTVSSEGKSSGASGESKVDDQAVVTQPSSVSGSLGQRVSITCSGSFIGISSVGWFQQLPGSGLRTIIVASDGRPSGVPDRFSMSKSGNTATLTISSLQAEDEADYFCGSSDRTPYTGVFGSGTRLTVLG
notes: scAb
[4]
  Kd: 0.6 nM
[5]
  Kd: 0.17 nM
Tau fragment 186-350
  binding result: no binding (tested: 25 ug/ml)
Tau fragment 337-368
  binding result: no binding (tested: 25 ug/ml)
Tau fragment 369-390
  EC50 (read off the curve): ~0.4 µg/mL
Tau fragment 369-391
  EC50 (read off the curve): ~0.5 µg/mL
[6]
  Kd: 0.17 nM
  koff: 0.00018 s⁻¹
  kon: 1.06e+06 M⁻¹ s⁻¹
dGA (tau 297-390) [13]
  Kd: 0.447 nM
  koff: 0.00035 s⁻¹
  kon: 783000 M⁻¹ s⁻¹
[7]
  LoD chemiluminescence detection: 0.12 ng/mL
  LoD colourimetric detection: 2 ng/mL
[14]
  EC50 (read off the curve): ~10 µg/mL
Aggregated dGAE [10]
  LoD: 16 ng/mL
Aggregated dGAE [11]
  LoD: 2 ng/mL
Aggregated dGAE [15]
  EC50 (read off the curve): ~0.05 µg/mL

B5: CE3 scAb (scFv, not shown: small tags and cut ends)
scFv: QVRLQESGPSLVKPSQTLSVTCTVSGFSLISNAVGWVRQAPGKVPESLAGCSSDGKCYYNSALKSRLDITRDTSKNQISLSLSSVTTDDAAVYYCTRGYYPVYGYDYLGTIDYWGPGLLVTVSSEGKSSGASGESKVDDQAVLTQPSSVSGSLGQRVSITCSGSSSNVGRNDVAWFQQLPGSGLRTIIYGTTSRPSGIPDRFSGSKSGVTATLTIDSLQAEDEADYFCASGDSSAINDIFGSGTRLTVLG
notes: scAb
[5]
  Kd: 3.79 nM
[16]
  EC50 (read off the curve): ~0.1 µg/mL
[17]
  EC50 (read off the curve): ~0.3 µg/mL
[6]
  Kd: 3.79 nM
  koff: 0.000662 s⁻¹
  kon: 174000 M⁻¹ s⁻¹
dGAE (tau 297-391) [18]
  EC50 (read off the curve): ~0.3 µg/mL

B6: CB3 scAb (scFv, not shown: small tags and cut ends)
scFv: QVQLQESGPSLVKPSQTLSLTCTVSGFSLSSVAVNWVRQAPGKVPEWLGGIISNGGTGYNPALKSRLSITRDTSKSQVSLALTHVTTEDTAVYYCGRGVEWEGSMDYLGPGLLVTVSSEGKSSGSGSETKVDDQSVLTQPSSVSGFLGQRVTITCSGSSSNVGAGSYVGWYQQVPGSGLRILIYGATKRASGLPDRFSGSRSGNTATLTISSLQAEDEADYYCVSYQTDFTLVFGSGTRLTVLG
notes: scAb
dGAE (tau 297-391) [19]
  EC50 (read off the curve): ~0.4 µg/mL

B7: S1G2 mAb (antibody, mouse IgG2a, V domains shown)
VH: QVQLQESGPSLVKPSQTLSLTCTVSGFSLTSNSVGWVRQAPGKAPEWVAGIDTDGEEGYNPALNSRLSITRDTSKSQVSLSLSSVTSEDTAVYYCGRSYRADGLAYGYVQAIDYWGPGLLVTVSS
VL: QAVVTQPSSVSGSLGQRVSITCSGSFIGISSVGWFQQLPGSGLRTIIVASDGRPSGVPDRFSMSKSGNTATLTISSLQAEDEADYFCGSSDRTPYTGVFGSGTRLTVLG
notes: sheep-mouse IgG2a chimeric mAb; also called S1G2 antibody
[20]
  binding result: binds
[21]
  Kd: 0.14 nM
  koff: 4.75e-05 s⁻¹
  kon: 340000 M⁻¹ s⁻¹
Aggregated dGAE [22]
  EC50 (read off the curve): ~30 nM
